For data set [1], the target named is phosphorylated Flag-GBP1 (GBP1pS156) purified from THP-1ΔGBP1+Tet-Flag-GBP1 WT cells (human) (UniProt P32455). Put plainly: co-IP; semi-quantitative co-immunoprecipitation: purified phosphorylated Flag-GBP1 bound to Flag(M2)-agarose beads, incubated with different concentrations of purified HA-14-3-3 proteins for 1 hour at 4°C in 25 mM HEPES pH 7.3, 100 mM NaCl, 0.01% Triton X-100, 5% glycerol, 1 mM DTT; blots ….

Data set [2] concerns the target endogenous GBP1 (IFNγ-treated THP-1 cells) (human (endogenous in THP-1)) (UniProt P32455). Put plainly: cross-linking; GBP1 oligomerization assay: THP-1 cells (IFNγ±Dox; also ΔPIM1 or Δ14-3-3σ cells) lysed, GBP1 precipitated with CHAPS buffer, pellets cross-linked with 4 mM DSS for 30 minutes at room temperature, immunoblot. Background: Immunoblotting shows a protein as a band on a membrane.

A further data set has as its target 14-3-3β (UniProt P31946). The data set can be described thus: co-IP of Flag-GBP1 and HA-14-3-3. The note with it: reference: wild type; sites S156.
Another data set deals with 14-3-3θ (UniProt P27348). The data set can be described thus: co-IP of Flag-GBP1 and HA-14-3-3. The note with it: reference: wild type; sites S156.
Another data set deals with 14-3-3σ (UniProt P31947). The data set can be described thus: co-IP of Flag-GBP1 and HA-14-3-3. The note with it: reference: wild type; sites S156.
The next data set deals with 14-3-3η (UniProt Q04917). Put plainly: co-IP of Flag-GBP1 and HA-14-3-3. The note with it: reference: wild type; sites S156.
Another data set has as its target 14-3-3ε (UniProt P62258). The data set can be described thus: co-IP of Flag-GBP1 and HA-14-3-3. The note with it: reference: wild type; sites S156.
The target of a further data set is 14-3-3γ (UniProt P61981). The data set can be described thus: co-IP of Flag-GBP1 and HA-14-3-3. The note with it: reference: wild type; sites S156.
A further data set has as its target 14-3-3ζ (UniProt P63104). Put plainly: co-IP of Flag-GBP1 and HA-14-3-3. The note with it: reference: wild type; sites S156.
The target of data set [3] is recombinant GBP1 (non-phosphorylated) (human) (UniProt P32455). Put plainly: SEC; GBP1 dimerization: samples without nucleotide or incubated with 1 mM GTP or 1 mM GDP + 10 mM AlF3; free GBP1 or phosphorylated, 14-3-3σ-bound GBP1. A general note: SEC sorts molecules by how far they enter the pores of the column.
In data set [4] the target is T1, in vitro phosphorylated recombinant GBP1 (human, UniProt P32455 1-592, phosphoserine at 156 (GBP1pS156); Ser569 and Thr590 also identified as sites phosphorylated by PIM1 in vitro).
T1 chain: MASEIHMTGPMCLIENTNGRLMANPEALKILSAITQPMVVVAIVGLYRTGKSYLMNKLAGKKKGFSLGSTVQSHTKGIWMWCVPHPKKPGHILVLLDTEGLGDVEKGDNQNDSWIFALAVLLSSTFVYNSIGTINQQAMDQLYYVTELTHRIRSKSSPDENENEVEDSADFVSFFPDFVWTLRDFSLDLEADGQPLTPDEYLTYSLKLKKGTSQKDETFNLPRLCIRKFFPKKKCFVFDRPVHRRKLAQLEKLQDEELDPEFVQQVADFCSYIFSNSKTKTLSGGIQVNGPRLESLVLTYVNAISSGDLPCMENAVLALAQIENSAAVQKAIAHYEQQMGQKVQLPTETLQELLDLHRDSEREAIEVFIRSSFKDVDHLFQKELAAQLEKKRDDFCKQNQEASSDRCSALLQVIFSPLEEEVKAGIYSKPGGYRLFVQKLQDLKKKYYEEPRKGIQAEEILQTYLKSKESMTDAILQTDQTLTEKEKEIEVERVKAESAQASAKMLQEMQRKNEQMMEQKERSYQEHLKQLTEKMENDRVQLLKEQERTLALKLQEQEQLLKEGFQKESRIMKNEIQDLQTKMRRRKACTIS
The data set can be described thus: ITC; GBP1 phosphorylated at S156. (In ITC the heat of successive injections is recorded.)

Data set [5] has as its target T1, in vitro phosphorylated recombinant GBP1.
Data set [6] deals with the molecule itself. Put plainly: cryo-EM structure; single particle cryo-EM of the SEC-purified phospho-GBP1:14-3-3σ complex; crystal structures docked as rigid bodies.
In data set [7] the target is T2, phosphorylated Flag-GBP1 (GBP1pS156) purified from THP-1ΔGBP1+Tet-Flag-GBP1 WT cells (human, UniProt P32455 1-592, phosphoserine at 156).
T2 chain: T1 chain
The data set can be described thus: GBP1 phosphorylated at S156; semi-quantitative co-IP.

Data set [8] deals with the molecule itself. Put plainly: cross-linking; GBP1 oligomerization assay: THP-1 cells (IFNγ±Dox; also ΔPIM1 or Δ14-3-3σ cells) lysed, GBP1 precipitated with CHAPS buffer, pellets cross-linked with 4 mM DSS for 30 minutes at room temperature, immunoblot.

Positions count from the first letter of the chain named. Numbers in names are those of the source.

For orientation: Kd means the equilibrium constant for the complex coming apart. Consider “HA-14-3-3σ (from UniProt P31947 1-248) (natural protein)”, for which, in data set [1], the Kd came out at 370 nM.
A word on the stoichiometry N: it is the number of molecules, sites or subunits per partner or assembly. In the case of “endogenous GBP1 (IFNγ-treated THP-1 cells) (from UniProt P32455 1-592) (natural protein)”, the stoichiometry N in data set [2] came out at 2.
With GBP1 (from UniProt P32455) S156A, the “binding against the reference” value with 14-3-3β, with 14-3-3θ, in the data set with 14-3-3σ, in the data set with 14-3-3η, with 14-3-3ε and with 14-3-3γ was “lost” in each case. In addition, the “binding against the reference” value with 14-3-3ζ is on record as “lost”.
Regarding “recombinant GBP1 (non-phosphorylated) (from UniProt P32455 1-592) (natural protein)”, the stoichiometry N in data set [3] turned out to be 2.

B1: recombinant 14-3-3σ (natural protein, human, UniProt P31947 1-248, looked up)
chain: MERASLIQKAKLAEQAERYEDMAAFMKGAVEKGEELSCEERNLLSVAYKNVVGGQRAAWRVLSSIEQKSNEEGSEEKGPEVREYREKVETELQGVCDTVLGLLDSHLIKEAGDAESRVFYLKMKGDYYRYLAEVATGDDKKRIIDSARSAYQEAMDISKKEMPPTNPIRLGLALNFSVFHYEIANSPEEAISLAKTTFDEAMADLHTLSEDSYKDSTLIMQLLRDNLTLWTADNAGEEGGEAPQEPQS
notes: 14-3-3σ (stratifin), ORF from cDNA of IFNγ-primed THP-1 WT cells via pLenti-Tet-14-3-3σ into pET15d-6xHis-3C; homodimer in the cryo-EM map; also called SFN; YWHAS; source: E. coli BL21, purified (Ni-NTA, 3C cleavage, reverse Ni-IMAC, SEC); not shown: His6, N-terminal, cleaved
B1: the Kd in [4] was determined as 400 nM. Also, the GTPase activity assay (rate of GTP hydrolysis, free phosphate by Malachite Green), 2 μM purified GBP1:14-3-3σ complex compared to free GBP1 in data set [5] is above 8 fold. Moreover, in [6], the “stoichiometry N” value was 2.

B2: HA-14-3-3θ (natural protein)
chain: MEKTELIQKAKLAEQAERYDDMATCMKAVTEQGAELSNEERNLLSVAYKNVVGGRRSAWRVISSIEQKTDTSDKKLQLIKDYREKVESELRSICTTVLELLDKYLIANATNPESKVFYLKMKGDYFRYLAEVACGDDRKQTIDNSQGAYQEAFDISKKEMQPTHPIRLGLALNFSVFYYEILNNPELACTLAKTAFDEAIAELDTLNEDSYKDSTLIMQLLRDNLTLWTSDSAGEECDAAEGAEN
With B2, the Kd in data set [7] came to 1730 nM.

B3: HA-14-3-3η (natural protein)
chain: MGDREQLLQRARLAEQAERYDDMASAMKAVTELNEPLSNEDRNLLSVAYKNVVGARRSSWRVISSIEQKTMADGNEKKLEKVKAYREKIEKELETVCNDVLSLLDKFLIKNCNDFQYESKVFYLKMKGDYYRYLAEVASGEKKNSVVEASEAAYKEAFEISKEQMQPTHPIRLGLALNFSVFYYEIQNAPEQACLLAKQAFDDAIAELDTLNEDSYKDSTLIMQLLRDNLTLWTSDQQDEEAGEGN
Take B3: in [7], the equilibrium dissociation constant (Kd) came out at 6430 nM.

B4: HA-14-3-3γ (natural protein)
chain: MVDREQLVQKARLAEQAERYDDMAAAMKNVTELNEPLSNEERNLLSVAYKNVVGARRSSWRVISSIEQKTSADGNEKKIEMVRAYREKIEKELEAVCQDVLSLLDNYLIKNCSETQYESKVFYLKMKGDYYRYLAEVATGEKRATVVESSEKAYSEAHEISKEHMQPTHPIRLGLALNYSVFYYEIQNAPEQACHLAKTAFDDAIAELDTLNEDSYKDSTLIMQLLRDNLTLWTSDQQDDDGGEGNN
In the case of B4, the Kd in [7] amounted to 4200 nM.

B5: HA-14-3-3ε (natural protein)
chain: MDDREDLVYQAKLAEQAERYDEMVESMKKVAGMDVELTVEERNLLSVAYKNVIGARRASWRIISSIEQKEENKGGEDKLKMIREYRQMVETELKLICCDILDVLDKHLIPAANTGESKVFYYKMKGDYHRYLAEFATGNDRKEAAENSLVAYKAASDIAMTELPPTHPIRLGLALNFSVFYYEILNSPDRACRLAKAAFDDAIAELDTLSEESYKDSTLIMQLLRDNLTLWTSDMQGDGEEQNKEALQDVEDENQ
As to B5, binding in data set [7] was put at a Kd of 1860 nM.

B6: HA-14-3-3β (natural protein)
chain: MTMDKSELVQKAKLAEQAERYDDMAAAMKAVTEQGHELSNEERNLLSVAYKNVVGARRSSWRVISSIEQKTERNEKKQQMGKEYREKIEAELQDICNDVLELLDKYLIPNATQPESKVFYLKMKGDYFRYLSEVASGDNKQTTVSNSQQAYQEAFEISKKEMQPTHPIRLGLALNFSVFYYEILNSPEKACSLAKTAFDEAIAELDTLNEESYKDSTLIMQLLRDNLTLWTSENQGDEGDAGEGEN
As to B6, the Kd in data set [7] amounted to 2310 nM.

B7: HA-14-3-3ζ (natural protein)
chain: MDKNELVQKAKLAEQAERYDDMAACMKSVTEQGAELSNEERNLLSVAYKNVVGARRSSWRVVSSIEQKTEGAEKKQQMAREYREKIETELRDICNDVLSLLEKFLIPNASQAESKVFYLKMKGDYYRYLAEVAAGDDKKGIVDQSQQAYQEAFEISKKEMQPTHPIRLGLALNFSVFYYEILNSPEKACSLAKTAFDEAIAELDTLSEESYKDSTLIMQLLRDNLTLWTSDTQGDEAEAGEGGEN
B7: the Kd in [7] was 1120 nM.

B8: GBP1^S156A (Dox-inducible, THP-1ΔGBP1+GBP1^S156A cells) (natural protein, human, UniProt P32455 1-592, looked up)
chain: T1 chain with S156A
notes: pLenti-Tet-GBP1 mutated by site-directed mutagenesis; also called phosphodeficient GBP1; source: THP-1ΔGBP1+Tet-GBP1 S156A, Dox-induced, in lysate
For B8, the “stoichiometry N” value in data set [8] was determined as 2.

B9: GBP1^R151A/R153A/K155A (kinase motif mutant, Dox-inducible in THP-1ΔGBP1) (natural protein, human, UniProt P32455 1-592, looked up)
chain: T1 chain with R151A, R153A, K155A
notes: pLenti-Tet-GBP1 mutated by site-directed mutagenesis; source: THP-1ΔGBP1+Tet-GBP1 mutant, Dox-induced, in lysate
B9: in data set [8], the “stoichiometry N” value was 2.

B10: GBP1^R153A/P158A (14-3-3 binding motif mutant, Dox-inducible in THP-1ΔGBP1) (natural protein, human, UniProt P32455 1-592, looked up)
chain: T1 chain with R153A, P158A
notes: as for B9
Regarding B10, the “stoichiometry N” value in data set [8] turned out to be 2.
